The text below walks through data of patent US20060281072A1 (CRUCELL HOLLAND B V, published 2006).

Positions count from the first letter of the chain named.

Assay [1] concerns the target T1, human OX40-receptor (human, UniProt P43489 29-277).
T1 construct: whole, on cells; also called CD134; ACT-4
T1 sequence (looked up): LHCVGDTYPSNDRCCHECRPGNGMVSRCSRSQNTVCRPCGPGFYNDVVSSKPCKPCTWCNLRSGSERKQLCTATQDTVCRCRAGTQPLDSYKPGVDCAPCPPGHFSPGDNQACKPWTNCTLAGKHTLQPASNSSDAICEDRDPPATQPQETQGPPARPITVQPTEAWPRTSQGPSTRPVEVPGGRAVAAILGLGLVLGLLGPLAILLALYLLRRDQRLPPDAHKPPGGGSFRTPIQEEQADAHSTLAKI
Put plainly: flow cytometry on OX40-receptor transfected (filled) and mock-transfected (open) PER.C6 cells, anti-human IgG PE, IgG1 at 20 µg/ml. The method, then:
The anti-OX40 receptor IgG1 antibodies were validated for their ability to bind to PER.C6™ cells transfected with human OX40-receptor. To this purpose mock- and human OX40-receptor-transfected cells were stained with the IgG1 antibodies at a concentration of 20 μg/ml at 4° C. Binding of the antibodies called 008, 011, 021 and 023 was visualized using biotinylated goat-anti-human IgG (Fc specific, Caltag) followed by streptavidin-phyco-erythrin (Caltag). The stained cells were analyzed by flow cytometry.
(Flow cytometry measures light scatter and fluorescence of single cells or particles in a stream.)

In assay [2] the target is T1, human OX40-receptor. Put plainly: flow cytometry on tonsil mononuclear cells, M13 anti-phage PE against CD4 FITC.
Assay [3] deals with T2, human OX40-Ig fusion protein (human, UniProt P43489 29-214).
T2 construct: extracellular domain; Bought (Alexis Biochemicals); not shown: CH2 and CH3 domains of human IgG1
T2 sequence (looked up): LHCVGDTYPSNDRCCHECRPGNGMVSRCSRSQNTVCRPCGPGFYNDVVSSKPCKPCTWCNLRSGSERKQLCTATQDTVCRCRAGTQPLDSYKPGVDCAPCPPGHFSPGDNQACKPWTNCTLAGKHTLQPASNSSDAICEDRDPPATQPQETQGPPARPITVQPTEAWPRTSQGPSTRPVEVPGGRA
Put plainly: phage ELISA on coated human OX40-Ig, anti-M13 peroxidase, absorbance at 492 nm. On the procedure:
Selected phage antibodies that were obtained in the screen described above, were validated in ELISA for specificity. For this purpose, human OX40-Ig was coated to Maxisorp™ ELISA plates. After coating, the plates were blocked in 2% MPBS. The selected phage antibodies were incubated in an equal volume of 4% MPBS. The plates are emptied, washed once in PBS, after which the blocked phages were added. Incubation was allowed to proceed for 1 hour, the plates were washed in PBS containing 0.1% Tween-20 and bound phages were detected using an anti-M13 antibody conjugated to peroxidase. As a control, the procedure was performed simultaneously using a control phage antibody directed against thyroglobulin (De Kruif et al. 1995a and 1995b), which served as a negative control.
Background: In an ELISA, binding on a coated surface is turned into a signal by an enzyme label.

Assay [4] has as its target T1, human OX40-receptor. Put plainly: flow cytometry, mix of OX40-receptor transfected (green, PKH67) and control transfected PER.C6 cells, M13 anti-phage PE. The method, then: In another assay the phage antibodies were analyzed for their ability to bind PER.C6™ cells that recombinantly express human OX40-receptor. To this purpose PER.C6™ cells were transfected with a plasmid carrying a cDNA sequence encoding human OX40-receptor or with the empty vector and stable transfectants were selected using standard techniques known to a person skilled in the art (Coligan et al., 2001). For flow cytometry analysis, phage antibodies were first blocked in an equal volume of 4% MPBS for 15 minutes at 4° C. prior to the staining of the OX40-receptor- and control transfected PER.C6™ cells. The blocked phages were added to a mixture of unlabelled control transfected PER.C6™ cells and OX40-receptor transfected PER.C6™ cells that were labelled green using a lipophylic dye (PKH67, Sigma). The binding of the phage antibodies to the cells was visualized using a biotinylated anti-M13 antibody (Santa Cruz Biotechnology) followed by streptavidin-phycoerythrin (Caltag).

Assay [5] addresses T1, human OX40-receptor. Put plainly: flow cytometry on tonsil mononuclear cells, M13 anti-phage APC against CD4 FITC. The method, then: Inflamed tonsils were obtained from patients undergoing routine tonsillectomy. Tonsils were minced and the MNC fraction was isolated by density centrifugation. Flow cytometric analysis of the binding of the anti-OX40-receptor phage antibodies to the OX40+ CD4+ T-cells was performed as described above. The CD4+ T-cells were distinguished from total tonsil MNC using a FITC conjugated antibody against CD4. As shown in FIGS. 3A and 3B the selected anti-human OX40-receptor phage antibodies called SC02008, SC02009, SC02010, SC02011, SC02012 and SC02021 selectively stain a subset of CD4+ T-cells within tonsil and synovial fluid mononuclear cells respectively, while they display minor staining of peripheral blood CD4+ T-cells (FIG. 3C).

B1: human IgG1 antibody 011 (antibody, V domains shown)
VH: EVQLVESGGGVVQPGRSLRLSCAASGFTFSDYTMNWVRQAPGKGLEWVSSISGGSTYYADSRKGRFTISRDNSKNTLYLQMNNLRAEDTAVYYCARDRYFRQQNAFDYWGQGTLVTVSS
VL: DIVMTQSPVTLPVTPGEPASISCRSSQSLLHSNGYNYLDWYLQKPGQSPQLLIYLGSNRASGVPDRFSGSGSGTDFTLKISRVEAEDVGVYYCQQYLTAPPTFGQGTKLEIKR
notes: Human IgG1 made from scFv SC02011, expressed in PER.C6 cells; also called pgG102-011C01
On to B1, for which the binding result with human OX40-receptor [1] is listed as “binds”.

B2: phage antibody SC02022 (scFv) (scFv)
scFv: MAEVQLVESGGGLVHPGGSLRLSCAGSGFTFSSYAMHWVRQAPGKGLEWVSAIGTGGGTYYADSVQGRFTISRDNAKNSLYLQMNSLRAEDTAVYYCARYDEPLTIYWFDSWGQGTLVTVSSGGGGSGGGGSGGGGSEIELTQSPATLSLSPGERATLSCRASQSVSSYLAWYQQKPGQAPRLLIYDASNRATGIPARFSGSGSGTDFTLTISSLEPEDFAVYYCQQRSNWPPAFGGGTKVEIKRAA
notes: selected on OX40+ CD4+ T-cells
Consider B2, for which, in the assay with human OX40-receptor [2], the binding result is on record as “binds”.

B3: phage antibody SC02023 (scFv) (scFv)
scFv: B2 scFv with Q66M, A76S, S79T, E102N, P103V, L104M, T105G, I106L, S111Y
notes: as for B2
As to B3, the binding result with human OX40-receptor [2] is on record as “binds”.

B4: human IgG1 antibody 008 (antibody, V domains shown)
VH: EVQLVESGGGLVQPGGSLRLSCAASGFTFSNYTMNWVRQAPGKGLEWVSAISGSGGSTYYADSVKGRFTISRDNSKNTLYLQMNSLRAEDTAVYYCAKDRYSQVHYALDYWGQGTLVTVSS
VL: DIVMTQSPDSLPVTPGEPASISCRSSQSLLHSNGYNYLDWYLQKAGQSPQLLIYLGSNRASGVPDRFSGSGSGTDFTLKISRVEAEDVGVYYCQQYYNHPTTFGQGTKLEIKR
notes: Human IgG1 made from scFv SC02008, expressed in PER.C6 cells; also called pgG102-008C01
For the molecule B4, in the assay with human OX40-receptor [1], the binding result was “binds”.

B5: phage antibody SC02011 (scFv) (scFv)
scFv: MAEVQLVESGGGVVQPGRSLRLSCAASGFTFSDYTMNWVRQAPGKGLEWVSSISGGSTYYADSRKGRFTISRDNSKNTLYLQMNNLRAEDTAVYYCARDRYFRQQNAFDYWGQGTLVTVLEGTGGSGGTGSGTGTSELDIQMTQSPVTLPVTPGEPASISCRSSQSLLHSNGYNYLDWYLQKPGQSPQLLIYLGSNRASGVPDRFSGSGSGTDFTLKISRVEAEDVGVYYCQQYLTAPPTFGQGTKLEIKRAA
Regarding B5, the binding result (in assay [3]; with human OX40-receptor [4]) was “binds” in each case.

B6: human IgG1 antibody 023 (antibody, V domains shown)
VH: EVQLVESGGGLVHPGGSLRLSCAGSGFTFSSYAMHWVRQAPGKGLEWVSAIGTGGGTYYADSVMGRFTISRDNSKNTLYLQMNSLRAEDTAVYYCARYDNVMGLYWFDYWGQGTLVTVSS
VL: EIVLTQSPATLSLSPGERATLSCRASQSVSSYLAWYQQKPGQAPRLLIYDASNRATGIPARFSGSGSGTDFTLTISSLEPEDFAVYYCQQRSNWPPAFGGGTKVEIKR
notes: Human IgG1 made from scFv SC02023, expressed in PER.C6 cells; also called pgG102-023C01
With B6, the binding result with human OX40-receptor [1] is reported as “binds”.

B7: human IgG1 antibody 021 (antibody, V domains shown)
VH: EVQLVESGGGLVQPRGSLRLSCAASGFTFSSYAMNWVRQAPGKGLEWVAVISYDGSNKYYADSVKGRFTISRDNSKNTLYLQMNSLRAEDTAVYYCAKDRYITLPNALDYWGQGTLVTVSS
VL: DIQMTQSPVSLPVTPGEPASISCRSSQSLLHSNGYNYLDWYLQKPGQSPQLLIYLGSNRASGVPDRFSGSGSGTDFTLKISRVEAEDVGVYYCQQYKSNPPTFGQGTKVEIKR
notes: Human IgG1 made from scFv SC02021, expressed in PER.C6 cells; also called pgG102-021C01
As to B7, the binding result in the assay with human OX40-receptor [1] is “binds”.

B8: phage antibody SC02008 (scFv) (scFv)
scFv: MAEVQLVESGGGLVQPGGSLRLSCAASGFTFSNYTMNWVRQAPGKGLEWVSAISGSGGSTYYADSVKGRFTISRDNSKNTLYLQMNSLRAEDTAVYYCAKDRYSQVHYALDYWGQGTLVTVLEGTGGSGGTGSGTGTSELDIQMTQSPDSLPVTPGEPASISCRSSQSLLHSNGYNYLDWYLQKAGQSPQLLIYLGSNRASGVPDRFSGSGSGTDFTLKISRVEAEDVGVYYCQQYYNHPTTFGQGTKLEIKRAA
notes: the phage coat protein fusion is not described
On to B8, for which the binding result (in assay [3]; with human OX40-receptor [5]) was “binds” throughout.

B9: phage antibody SC02012 (scFv) (scFv)
scFv: MAEVQLVESGGGLVKPGGSLRLSCAASGFTFSNDSMNWMRQAPGKGLEWVANINQDGNEKYYADSVKGRFTISRDNSKNSLYLQMNSLRDEDTALYYCARARAAGTIFDYWGQGTLVTVLEGTGGSGGTGSGTGTSELDIQMTQSPSSLSASVGDRVTITCRASQNVSNYLTWYQQKPGKAGKLLIYAASSLQSGVPSRFSGSGSGTDFTLTISSLQPEDFATYYCQQSYFNPATFGQGTKLEIKRAA
For B9, the binding result (in assay [3]; in the assay with human OX40-receptor [4]) was “binds” in each case.
